# T1: Ovalbumin (UniProt P01012 2-386)
# T1 sequence: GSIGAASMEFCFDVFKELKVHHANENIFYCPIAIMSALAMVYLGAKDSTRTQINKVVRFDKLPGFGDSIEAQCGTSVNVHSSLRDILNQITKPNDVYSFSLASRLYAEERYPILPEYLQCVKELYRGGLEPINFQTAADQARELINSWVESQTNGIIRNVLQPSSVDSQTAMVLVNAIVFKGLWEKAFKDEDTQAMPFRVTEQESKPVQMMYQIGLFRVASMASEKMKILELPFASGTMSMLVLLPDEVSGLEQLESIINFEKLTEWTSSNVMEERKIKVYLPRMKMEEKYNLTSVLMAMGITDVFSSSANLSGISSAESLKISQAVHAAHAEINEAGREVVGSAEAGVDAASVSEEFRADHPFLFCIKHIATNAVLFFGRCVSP
# Molecular target: T1, Ovalbumin
# Test: ELISA, periplasmic extract on coated Ovalbumin
row,Binder,binding result
1,"g060d03 (Fab, V domains shown) VH: QMQLVQSGAEVKKPGTSVRVSCKTSGGYVFSWVRQAPGQGPEWMGGIITNFGTTNYAQKFQGRVTITADKSTNTVYMDLSNLTSEDTAVYYCARAPRGTSTIAARFNRYFFDSWGQGTLVTVS VL: DIQMTQSPGTLSLSPGERATLSCRASQSVNSDNLAWYQQKPGQAPRLLMSGATSRATDVPDRFSGSGSGTDFTLTISRLEPEDFAVYYCHQYGSSDNTFGQGTKLEIK",no binding (tested: 10 µg/ml Ovalbumin coat)
2,"g060b07 (Fab, V domains shown) VH: EVQLVESGAEVKKPGTSVRVSCKTSGGYVFSWVRQAPGQGPEWMGGIITSFGTTSYAQKFQGRVTITADKATNTVYMDLSDLTSEDTAIYYCAKAPRGTSTIAARFNRYFFDSWGQGTLVTVS VL: not shown",no binding (tested: 10 µg/ml Ovalbumin coat)
3,"g060b05 (Fab, V domains shown) VH: QVQLVQSGAEVKKLGTSVRVSCKTPGGYVFSWVRQAPGQGPEWMGGIITNFGTTNYARKFQGRITVTADKSTNTVYMDLSNLASEDTAVYYCARAPRGTSTIAARFNRYFFDSWGQGTLVTVS VL: not shown",no binding (tested: 10 µg/ml Ovalbumin coat)
4,"g060f02 (Fab, V domains shown) VH: KVQLVQSGAEVKKPGTSVRVSCKTSGGYVFSWVRQAPGHGPEWMGGIITNFGTATYAQKFQGRVSITADTSTNTFYMDLNNLKSDDTAVYYCASAPRDTSTIAARFNRYFFDFWGPGTLVTVS VL: DVVMTQSPGTLSLSPGERATLSCRASQSVNSNNLAWYQQKPGQAPRLLVSGATNRATDIPDRFSGSGSGTDFTLTISRLEPEDFAVYYCHQYGSSENTFGQGTKLEIR",no binding (tested: 10 µg/ml Ovalbumin coat)
5,"g060f04 (Fab, V domains shown) VH: KVQLVQSGAEVKKPGTSVRVSCKTPGGYVFSWVRQAPGQGPEWMGGIITNFGTTNYARKFQGRITVTADKSTNTVYMDLSNLASEDTAVYYCARAPRGTSTIAARFNRYFFDSWGQGTLVTVS VL: not shown",no binding (tested: 10 µg/ml Ovalbumin coat)
6,"g060f08 (Fab, V domains shown) VH: KVQLVQSGAEVKKPGTSVRVSCKTSGGYVFSWVRQAPGQGPEWMGGIITNFGTTNYAQKFQGRVTITADKSTNTVYMDLSNLTSEDTAVYYCARAPRGTSTIAARFNRYFFDSWGQGTLVTVS VL: DVVMTQSPGTLSLSPGERATLSCRASQSVNSDNLAWYQQKPGQAPRLLMSGATSRATDIPDRFSGSGSGTDFTLTISRLEPEDFAVYYCHQYGSSDNTFGQGTKLEIK",no binding (tested: 10 µg/ml Ovalbumin coat)
7,"g060d07 (Fab, V domains shown) VH: EVQLVQSGAEVKKPGTSVRVSCKTPGGYVFSWVRQAPGQGPEWMGGIITNFGTTNYARKFQGRITVTADKSTNTVYMDLSNLASEDTAVYYCARAPRGTSTIAARFNRYFFDSWGQGTLVTVS VL: not shown",no binding (tested: 10 µg/ml Ovalbumin coat)
8,"g060a02 (Fab, V domains shown) VH: QVQLQQSGGGLVKPGGSLRLSCAASGFTFSSYSMNWVRQAPGKGLEWVSSISSSSSYIYYADSVKGRFTISRDNAKNSLYLQMNSLRAEDTAVYYCARRPGWAATRAAGAFDIWGQGTMVTVS VL: EIVLTQSPSSLSASVGDRVTITCRASQGISNYLAWYQQKPGKVPKLLIYAASTLQSGVPSRFSGSGSGTDFTLTISSLQPEDVATYYCQKYNSAPYTFGQGTKLEIK",no binding (tested: 10 µg/ml Ovalbumin coat)
9,"g060g12 (Fab, V domains shown) VH: EVQLVQSGGGVVRPGGSLRLSCAGSGFTFDEYAMSWVRQAPGKGLKWVAFINWNGDSTYYADSVKGRFTVSRSNAKNSLYLQMNSLRAEDTAFYCCARDPRTKLGMSYFDYWGQGTLVTVS VL: DIQMTQSPSSLSASVGDRVTITCRASQTISNHLNWYQQKPGRAPKLLIYVGSSLRSGVPSRFSGSGSGTDFTLTISGLQPEDFATYYCQQSYSPSYTFGQGTKVEIK",no binding (tested: 10 µg/ml Ovalbumin coat)
10,"g060a11 (Fab, V domains shown) VH: KVQLVESGGGLVKPGGSLRLSCVVSGFPLNRYTMNWVRQAPGKGLEWLSSISSTSSYIYYADSVKGRFTISRDNAKNSLFLQMNSLRADDTALYFCASGNTHDYWGQGTLVTVS VL: DVVMTQSPSSLSASVGDRVTITCRASQSININLNWFQQKPGKAPNLLIYSASTLQTGVPSRFSGSGSGTEFTLTISSLQPEDFATYYCQQIYSHVRTFGQGTKVEIK",no binding (tested: 10 µg/ml Ovalbumin coat)
11,"g060c12 (Fab, V domains shown) VH: KVQLVQSGGGLVKPGGSLRLSCVVSGFPLNRYIMNWVRQTPGKGLEWLSSISSTSSYIYYADSAKGRFTISRDNAKNSLFLQMNSLRAEDTGLYYCASGNTHDYWGQGTLVTVS VL: EIVLTQSPSSLSASVGDRVTTTCRTSQSIFINLNWFQQKPGKAPKLLIYSASTLQTGVPSRFSGSGSGTEFTLTISSLQPEDFATYYCQQIYSQVRTFGQGTKVEIK",no binding (tested: 10 µg/ml Ovalbumin coat)
12,"g060f01 (Fab, V domains shown) VH: QVQLQQSGGGVVQPGRSLRLSCAASGFAFRDYAMHWVRQAPGKGLEWMGVISFNGDQIFYADSMKGRFTISRENSKNTLHLRMNSLRPEDTAVYYCARARLLFCSGGRCDMDSWGQGTLVTVS VL: EIVMTQSPSFLSASVGDRVTITCRASQDIITYLAWYQQKPGKAPEVLIFGASTLQSGVPSRFSGSGSGTEFTLTISSLQPEDFATYYCQQIIRYPRTFGQGTRVEIK",no binding (tested: 10 µg/ml Ovalbumin coat)
13,"g060c04 (Fab, V domains shown) VH: QMQLVQSGAEVKKPGSSVKVSCQSSGGPPKSYTLSWVRQAPGQGPEWMGGIILIFGPPNYAQKFQDRLTITADKSTNTVYMELSSLRSDDTAMYYCVTAPDDTGTILARHNRYYFDSWGQGTLVTVS VL: EIVLTQSPGTLSLSPGQRATLSCRASQSVNRDYLAWYQQKPGQAPRLLIYGASSRATGIPDRFSGSGSGTDFTLTISRLERDDFAVYFCHQYGSSPNTFGQGTKLEIK",no binding (tested: 10 µg/ml Ovalbumin coat)
14,"g060c03 (Fab, V domains shown) VH: KVQLVESGGGLVKPGGSLRLSCAASGSSFSNNNMNWVRQTPGKGLEWVASISFGSHYISYADSVKGRFTISRDNARNAVYLQMNSLRVEDTAVYYCTRCRGGTRTYYYMDVWGKGTLVTVS VL: EIVMTQSPGTLALSPGDRATLSCGASQSVFGDFLAWYQHKPGQAPRLLIYGASTRATGIPDRFSGSGAGTDFTLTISRLEPEDFAVYFCQQYGDSVFTFGQGTKLEIK",no binding (tested: 10 µg/ml Ovalbumin coat)
15,"g060d08 (Fab, V domains shown) VH: KVQLVESGGGLVKPGGSLRLSCAASGFSFSNNNMNWVRQTPGKGLEWVASISFGSHYISYADSVKGRFTISRDNARNAVYLQMNSLRVEDTAVYYCTRCRGGTRTYYYMDVWGKGTMVTVS VL: DVVMTQSPGTLALSPGDRATLSCGASQSVFGDFLAWYQHKPGQAPRLLIYVASTRATGIPDRFSGSGAGTDFTLTISRLEPEDFAVYFCQQYGDSVFTFGQGTKLEIR",no binding (tested: 10 µg/ml Ovalbumin coat)
16,"g060f06 (Fab, V domains shown) VH: QVQLQQSGGGLVKPGGSLRLSCAASGFSFSNNNMNWVRQTPGKGLEWVASISFGSHYISYADSVKGRFTISRDNARNAVYLQMNSLRVEDTAVYYCTRCRGGTRTYYYMDVWGKGTLVTVS VL: EIVMTQSPGTLALSPGDRATLSCGASQSVFGDFLAWYQHKPGQAPRPLIYGASTRATGIPDRFSGSGAGTDFTLTISRLEPEDFAVYFCQQYGDSVFTFGQGTKLEIK",no binding (tested: 10 µg/ml Ovalbumin coat)
17,"g060b12 (Fab, V domains shown) VH: QVQLVQSGGGLVKPGGSLRLSCAASGFSFSNNNMNWVRQTPGKGLEWVASISFGSHYISYADSVKGRFTISRDNARNAVYLQMNSLRVEDTAVYYCTRCRGGTRTYYYMDVWGKGTLVTVS VL: EIVLTQSPGTLALSPGDRATLSCGASQSVFGDFLAWYQHKPGQAPRLLIYGASTRATGIPDRFSGSGAGTDFTLTISRLEPEDFAVYFCQQYGDSVFTFGQGTKLGIK",no binding (tested: 10 µg/ml Ovalbumin coat)
18,"g060e05 (Fab, V domains shown) VH: QVQLVESGAEVKKPGSSVKVSCKSSGGYVFSWVRQAPGQGLEWMGGIISNFRTAEYARKFQGRVTMTADTSTNTIYMELTSLTSEDTAVYFCVSAPRDTSTIAARFNRYFFDTWGQGTLVTVS VL: EIVLTQSPGTLSLSPGERATLSCRASRSVNSNNLAWYQQKPDQAPRLLMYGASSRATGIPDRFTGSGSGTDFTLTISRLEPEDFAVYYCHQYGASDNTFGQGTKLEIK",no binding (tested: 10 µg/ml Ovalbumin coat)
19,"g060g09 (Fab, V domains shown) VH: KVQLVQSGAEVKKPGSSVKVSCKSSGGYVFSWVRQAPGQGLEWMGGIISNFHTAEYAQKFQGRVTMTADTSTNTIYMELTSLTSEDTAVYFCVSAPRDTSTIAARFNRYFFDTWGQGTLVTVS VL: EIVLTQSPGTLSLSPGERATLSCRASRSVYSNNLAWYQQKPDQAPRLLMYGASSRATGIPDRFTGSGSGTDFTLTISRLEPEDFAVYYCHQYGASDNTFGQGTKLEIK",no binding (tested: 10 µg/ml Ovalbumin coat)
20,"g060f03 (Fab, V domains shown) VH: QVQLVQSGGGLVKPGGSLRLSCAASGFTFSNAWMSWVRQAPGKGLEWVGHVKSMTDGGTTDYAAPVKGRFTISRDDSENTLYLQMNSLKTDDTAVYYCTTHDYWGQGTLVTVS VL: EIVMTQSPPFLSASVGDRVTITCRASQGLSTYLAWYQVKPGKAPKLLIYAASTLQSGVPSRFSGSGSGTEFTLTINSLQPEDFATYYCQQLDTYPLTLGGGTKVEIK",no binding (tested: 10 µg/ml Ovalbumin coat)

# Source: US20070141048A1 (SYMPHOGEN A S, published 2007)
